Data reported in patent US6090929, “Protein binding fragments of gravin” (Oregon Health Science University, dated 2000).

Biological target: recombinant murine RIIα (murine, UniProt P12367)
Assay: in situ overlay of fixed, permeabilized PMA-treated HEL cells with recombinant murine RIIα, immunofluorescence
Method: After 1 hr the coverslips were carefully washed in PBS and 0.2% BSA and incubated with either a mixture of FITC conjugated donkey anti-rabbit secondary antibody (1:100 dilution, Jackson ImmunoReasearch Laboratories Inc, West Grove, Pa.) and rhodamine conjugated phalloidin (1 unit/coverslip, Molecular Probes, Inc, Eugene, Oreg.) or secondary antibody alone. […] Prior to incubation with primary antibody, cells were incubated with 80 nM recombinant murine RII for 2 hr and unbound RII removed by washing three times in PBS and 0.2% BSA. […] Control coverslips were treated with the antibody to RII in the absence of exogenous murine RII. Cells were examined using a Leica confocal laser scanning system equipped with a Leitz Fluovert-FU inverted microscope and an argon/krypton laser.
Fixed and permeabilized cells pre-treated with PMA were overlayed with recombinant murine RIIα.

B1: gravin (full length, human; 250 kDa protein of cell lysates) (other)
chain: MGAGSSTEQRSPEQPPEGSSTPAEPEPSGGGPSAEAAPDTTADPAIAASDPATKLLQKNGQLSTINGVAEQDELSLQEGDLNGQKGALNGQGALNSQEEEEVIVTEVGQRDSEDVSERDSDKEMATKSAVVHDITDDGQEENRNIEQIPSSESNLEELTQPTESQANDIGFKKVFKFVGFKFTVKKDKTEKPDTVQLLTVKKDEGEGAAGAGDHQDPSLGAGEAASKESEPKQSTEKPEETLKREQSHAEISPPAESGQAVEECKEEGEEKQEKEPSKSAESPTSPVTSETGSTFKKFFTQGWAGWRKKTSFRKPKEDEVEASEKKKEQEPEKVDTEEDGKAEVASEKLTASEQAHPQEPAESAHEPRLSAEYEKVELPSEEQVSGSQGPSEEKPAPLATEVFDEKIEVHQEEVVAEVHVSTVEERTEEQKTEVEETAGSVPAEELVGMDAEPQEAEPAKELVKLKETCVSGEDPTQGADLSPDEKVLSKPPEGVVSEVEMLSSQERMKVQGSPLKKLFTSTGLKKLSGKKQKGKRGGGDEESGEHTQVPADSPDSQEEQKGESSASSPEEPEEITCLEKGLAEVQQDGEAEEGATSDGEKKREGVTPWASFKKMVTPKKRVRRPSESDKEDELDKVKSATLSSTESTASEMQEEMKGSVEEPKPEEPKRKVDTSVSWEALICVGSSKKRARRRSSSDEEGGPKAMGGDHQKADEAGKDKETGTDGILAGSQEHDPGQGSSSPEQAGSPTEGEGVSTWESFKRLVTPRKKSKSKLEEKSEDSIAGSGVEHSTPDTEPGKEESWVSIKKFIPGRRKKRPDGKQEQAPVEDAGPTGANEDDSDVPAVVPLSEYDAVEREKMEAQQAQKGAEQPEQKAATEVSKELSESQVHMMAAAVADGTRAATIIEERSPSWISASVTEPLEQVEAEAALLTEEVLEREVIAEEEPPTVTEPLPENREARGDTVVSEAELTPEAVTAAETAGPLGSEEGTEASAAEETTEMVSAVSQLTDSPDTTEEATPVQEVEGGVPDIEEQERRTQEVLQAVAEKVKEESQLPGTGGPEDVLQPVQRAEAERPEEQAEASGLKKETDVVLKVDAQEAKTEPFTQGKVVGQTTPESFEKAPQVTESIESSELVTTCQAETLAGVKSQEMVMEQAIPPDSVETPTDSETDGSTPVADFDAPGTTQKDEIVEIHEENEVHLVPVRGTEAEAVPAQKERPPAPSSFVFQEETKEQSKMEDTLEHTDKEVSVETVSILSKTEGTQEADQYADEKTKDVPFFEGLEGSIDTGITVSREKVTEVALKGEGTEEAECKKDDALELQSHAKSPPSPVEREMVVQVEREKTEAEPTHVNEEKLEHETAVTVSEEVSKQLLQTVNVPIIDGAKEVSSLEGSPPPCLGQEEAVCTKIQVQSSEASFTLTAAAEEEKVLGETANILETGETLEPAGAHLVLEEKSSEKNEDFAAHPGEDAVPTGPDCQAKSTPVIVSATTKKGLSSDLEGEKTTSLKWKSDEVDEQVACQEVKVSVAIEDLEPENGILELETKSSKLVQNIIQTAVDQFVRTEETATEMLTSELQTQAHVIKADSQDAGQETEKEGEEPQASAQDETPITSAKEESESTAVGQAHSDISKDMSEASEKTMTVEVEGSTVNDQQLEEVVLPSEEEGGGAGTKSVPEDDGHALLAERIEKSLVEPKEDEKGDDVDDPENQNSALADTDASGGLTKESPDTNGPKQKEKEDAQEVELQEGKVHSESDKAITPQAQEELQKQERESAKSELTES
binding result: binds
